This passage reports CCR8+CD127-CD25+CD4, % positive, Median Fluorescence of Sample/Median Fluorescence of Negative Control and binding by FACS (read-out not named) results from patent publication US20250171549A1.

For assay [1], the target named is human CCR8 (human) (UniProt P51685). Put plainly: flow cytometry, primary human Tregs (PBMC, CD4+CD25+CD127- gate).
In assay [2] the target is cynomolgus monkey CCR8 (comprising threonine at position four) (cynomolgus monkey). Nature of the assay: flow cytometry, primary cynomolgus Tregs (PBMC, CD4+CD25+CD127- gate).
Sequence of cynomolgus monkey CCR8 (comprising threonine at position four) (cynomolgus monkey) (O97665 other isoform, or with tags, fused parts or gaps): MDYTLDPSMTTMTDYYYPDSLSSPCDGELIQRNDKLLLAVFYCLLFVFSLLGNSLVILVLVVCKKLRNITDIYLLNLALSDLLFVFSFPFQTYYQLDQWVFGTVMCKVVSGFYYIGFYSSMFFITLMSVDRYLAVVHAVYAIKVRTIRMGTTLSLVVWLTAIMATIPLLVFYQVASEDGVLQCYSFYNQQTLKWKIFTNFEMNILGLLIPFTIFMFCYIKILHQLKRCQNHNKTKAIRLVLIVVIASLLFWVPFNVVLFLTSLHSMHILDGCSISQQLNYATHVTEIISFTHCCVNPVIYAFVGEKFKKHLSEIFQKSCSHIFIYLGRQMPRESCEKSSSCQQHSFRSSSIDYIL
In assay [3] the target is P_19-30 construct (truncated N-terminal peptide of human CCR8 fused to V5 tag, chicken albumin, FLAG tag, BAP and H3G) (human). Nature of the assay: flow cytometry, construct on streptavidin beads.
Assay [4] concerns the target P_7-18 construct (truncated N-terminal peptide of human CCR8 fused to V5 tag, chicken albumin, FLAG tag, BAP and H3G) (human). Put plainly: flow cytometry, construct on streptavidin beads.
Assay [5] deals with P_1-35 construct (full-length N-terminal peptide of human CCR8 fused to V5 tag, chicken albumin, FLAG tag, BAP and H3G) (human). Put plainly: flow cytometry, construct on streptavidin beads.
Sequence of P_1-35 construct (full-length N-terminal peptide of human CCR8 fused to V5 tag, chicken albumin, FLAG tag, BAP and H3G) (human) (chain, as listed by the source): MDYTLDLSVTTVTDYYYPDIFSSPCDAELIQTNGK
Assay [6] concerns the target P_1-12 construct (truncated N-terminal peptide of human CCR8 fused to V5 tag, chicken albumin, FLAG tag, BAP and H3G) (human). Nature of the assay: flow cytometry, construct on streptavidin beads.
Assay [7] deals with T1, P_25-35 construct (truncated N-terminal peptide of human CCR8 fused to V5 tag, chicken albumin, FLAG tag, BAP and H3G) (human).
T1 sequence (chain, biotinylated in vivo at BAP): CDAELIQTNGK
Put plainly: flow cytometry, construct on streptavidin beads.

Assay [8] addresses P_13-24 construct (truncated N-terminal peptide of human CCR8 fused to V5 tag, chicken albumin, FLAG tag, BAP and H3G) (human). Put plainly: flow cytometry, construct on streptavidin beads.
For assay [9], the target named is rat CCR8 (rat). Put plainly: flow cytometry, HEK293T transfectants, 5 ug/mL.
Sequence of rat CCR8 (rat) (P56484 other isoform, or with tags, fused parts or gaps): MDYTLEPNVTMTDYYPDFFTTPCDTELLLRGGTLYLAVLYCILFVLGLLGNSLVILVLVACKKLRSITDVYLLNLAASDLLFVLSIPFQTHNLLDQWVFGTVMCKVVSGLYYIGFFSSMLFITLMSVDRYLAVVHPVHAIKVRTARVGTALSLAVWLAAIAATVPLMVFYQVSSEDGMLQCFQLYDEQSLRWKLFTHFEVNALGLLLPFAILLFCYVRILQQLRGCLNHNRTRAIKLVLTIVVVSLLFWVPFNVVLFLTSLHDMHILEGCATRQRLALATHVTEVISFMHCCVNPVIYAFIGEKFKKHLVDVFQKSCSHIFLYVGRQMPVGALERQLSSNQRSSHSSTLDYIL
The target of assay [10] is murine CCR8 (murine) (UniProt P56484). Put plainly: flow cytometry, HEK293T transfectants, 5 ug/mL.
Sequence of murine CCR8 (murine) (P56484 whole entry): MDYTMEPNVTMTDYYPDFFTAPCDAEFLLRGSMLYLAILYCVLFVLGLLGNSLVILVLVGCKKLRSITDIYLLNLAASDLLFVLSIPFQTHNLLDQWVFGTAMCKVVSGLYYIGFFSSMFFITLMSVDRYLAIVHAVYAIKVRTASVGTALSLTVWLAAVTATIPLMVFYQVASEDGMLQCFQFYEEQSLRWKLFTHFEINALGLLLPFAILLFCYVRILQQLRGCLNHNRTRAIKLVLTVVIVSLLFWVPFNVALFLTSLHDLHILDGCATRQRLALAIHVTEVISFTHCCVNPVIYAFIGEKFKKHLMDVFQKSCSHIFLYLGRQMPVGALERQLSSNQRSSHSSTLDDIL
Assay [11] has as its target cynomolgus monkey CCR8 (comprising threonine at position four) (cynomolgus monkey). Nature of the assay: flow cytometry, primary cynomolgus Tregs, purified antibody 20 ug/ml.
For assay [12], the target named is human CCR8 (human) (UniProt P51685). Put plainly: flow cytometry, HuT78 cells, 5 ug/mL.
Assay [13] concerns the target human CCR8 with an A27G point mutation (human) (UniProt P51685). Nature of the assay: flow cytometry, HEK293T transfectants, 5 ug/mL.

“And” between values parts separate entries of the source, which are not always exact repeats. Identical values can stand only once.

Sequence of human CCR8 (human) (P51685 whole entry): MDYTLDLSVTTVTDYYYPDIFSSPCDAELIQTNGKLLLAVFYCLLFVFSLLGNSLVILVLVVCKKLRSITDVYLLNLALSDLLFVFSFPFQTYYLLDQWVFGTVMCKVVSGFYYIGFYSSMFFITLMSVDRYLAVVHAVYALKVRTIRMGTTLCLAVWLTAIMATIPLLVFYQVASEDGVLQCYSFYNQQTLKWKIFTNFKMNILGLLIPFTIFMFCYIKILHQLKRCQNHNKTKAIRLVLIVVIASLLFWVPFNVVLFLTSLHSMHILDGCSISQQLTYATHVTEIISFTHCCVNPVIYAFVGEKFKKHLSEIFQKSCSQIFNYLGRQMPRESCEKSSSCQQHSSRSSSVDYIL
Sequence of anti-human CCR8 antibody clone 433H (BD 747578) (VH): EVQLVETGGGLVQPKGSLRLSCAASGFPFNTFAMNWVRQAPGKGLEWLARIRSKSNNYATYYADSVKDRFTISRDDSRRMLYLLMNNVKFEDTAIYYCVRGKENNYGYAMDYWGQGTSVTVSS
Sequence of anti-human CCR8 antibody clone 433H (BD 747578) (VL): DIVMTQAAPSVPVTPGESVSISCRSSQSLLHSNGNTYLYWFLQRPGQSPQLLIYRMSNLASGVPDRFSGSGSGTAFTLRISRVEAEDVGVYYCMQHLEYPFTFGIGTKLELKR
Sequence of human CCR8 with an A27G point mutation (human) (P51685 whole entry A27G): as the sequence (P51685 whole entry) above, with A27G counted along it

For Cyno IgG2a (antibody), the CCR8+CD127-CD25+CD4, % positive was 0% and 0.1% in assay [1]; 0.3% and 0.8% in [2].
Turning to Hu IgG2b (antibody), the CCR8+CD127-CD25+CD4, % positive in [1] was 1.5% and 0% and 1.9%; in [2] it was 11.9% and 11.3%.
As to Negative control (Table 6), the Median Fluorescence of Sample/Median Fluorescence of Negative Control stood at 1 in [3]; 1 in assay [4]; 1 in [5]; 1 in assay [6]; 1.1 in assay [7]; 1 in assay [8].
With SA214G2 (antibody), the figures for the binding by FACS (read-out not named) in assay [9] and in assay [10] were 1590 and 56800, respectively.
As to “anti-FLAG antibody (clone M2, Sigma F3165/F1804)”, the Median Fluorescence of Sample/Median Fluorescence of Negative Control in assay [3] amounted to 590; in assay [4], 589; in [5] it was 522; in assay [6] it was 596; in [7], 582; in assay [8] it was 628.
For the substance “anti-V5 antibody (clone SV5-Pk1; AbD Serotec, MCA 1360)”, the Median Fluorescence of Sample/Median Fluorescence of Negative Control in assay [3] amounted to 1020; in [4], 1090; in assay [5] it was 953; in [6], 1090; in [7] it was 1090; in [8] it was 1300.
Turning to “anti-human CCR8 antibody clone 433H (BD 747578)”, the CCR8+CD127-CD25+CD4, % positive in [11] is 66.2% and 63.7%. The Median Fluorescence of Sample/Median Fluorescence of Negative Control is 0.9 in assay [3]; 0.9 in assay [4]; 290 in [5]; 0.9 in assay [6]; 0.9 in assay [7]; 300 in [8].
As to “anti-human CCR8 antibody clone L263G8 (BioLegend, 360602)”, the figures for the binding by FACS (read-out not named) in assay [12] and in assay [13] were 4500 and 41400, respectively. The Median Fluorescence of Sample/Median Fluorescence of Negative Control is 0.9 in assay [3]; 0.9 in [4]; 751 in [5]; 0.9 in [6]; 0.9 in assay [7]; 285 in [8].
